Literature values, collected in publication PMC6472351.
“And” between values parts separate entries of the source, which are not always exact repeats. Identical values can stand only once. Like-named read-outs stand apart in the source and are kept apart here.

Key:
[1] = molecular target: Histone H3 (Homo sapiens) (UniProt P68431)
[2] = molecular target: Histone H3 (Homo sapiens) (UniProt P68431); remark: listed apart in the source

Kd [1]	Kd [2]	Substance
6 µM and 1 µM	–	DIDO PHD (from UniProt Q9BTC0)
–	5 µM and 7 µM	GLP ankyrin (from UniProt Q9H9B1)
